Target: POTRA domains of Toc75 (Toc75-POTRA) (Chlamydomonas reinhardtii)
Experiment: SPR

Question: “Tic22 (recombinant, His-tagged) (natural protein)” was tested. Which Kd did it give?
Answer: 5.22 µM
